For two proteins, Km, kcat and kcat/Km results are on record in PMC12042792, “Discovery of two novel cutinases from a gut yeast of plastic-eating mealworm for polyester depolymerization” (Applied and Environmental Microbiology, 2025).

Test in all cases: purified protein
Type in all cases: biochemical, Sakaguchia sp.

Substrate in data set [1]: CCCCCCCCCC(=O)Oc1ccc([N+](=O)[O-])cc1
Substrate in data set [2]: CCCCCCCCCCCC(=O)Oc1ccc([N+](=O)[O-])cc1
Substrate in data set [3]: CCCC(=O)Oc1ccc([N+](=O)[O-])cc1
Substrate in data set [4]: CCCCCCCCCCCCCC(=O)Oc1ccc([N+](=O)[O-])cc1
Substrate in data set [5]: CC(=O)Oc1ccc([N+](=O)[O-])cc1
Substrate in data set [6]: CCCCCCCC(=O)Oc1ccc([N+](=O)[O-])cc1
Substrate in data set [7]: CCCCCC(=O)Oc1ccc([N+](=O)[O-])cc1
Substrate in data set [8]: CCCCCCCCCCCCCCCC(=O)Oc1ccc([N+](=O)[O-])cc1
The mark [9] stands for this setting: 50 mM Tris-HCl pH 7.5, optimal temperature (35 °C).
Setting [10] is: 50 mM Tris-HCl pH 7.5, optimal temperature (45 °C).

B1: SiCut1 (Sakaguchia sp.) (protein)
chain: AAIAERQSSACAPLELYHAAGTSESGLGTVGRAFQTALPREVQGATVSPLNYNTNAEYSSTVTAGAQTFQQLLTSRAAACPNTKFVLSGYSKGALVVHKVTLPSAVQSKVVAITVFGDPQAGQFGATTVPINNKACFFSFCNRGDTFCDRGGNFAAHLAYATDGSVTTASRNIAGCYRA
notes: no tag mentioned; diafiltered culture supernatant
Usually Km stands for the concentration of substrate that gives half-maximal velocity. For orientation: kcat means the maximal rate divided by the concentration of active sites. As usually defined, the kcat/Km is the turnover number divided by the Michaelis constant. Consider B1, for which the Km stood at 7.57 ± 0.01 µM in the data set “purified protein [1]” (setting [9]); 3.21 ± 0.63 µM in the data set “purified protein [2]” (setting [9]); 1.73 ± 0.99 µM in “purified protein [3]” (setting [9]); 3.46 ± 0.02 µM in “purified protein [4]” (setting [9]); 9.12 ± 0.04 µM in the data set “purified protein [5]” (setting [9]); 2.01 ± 0.63 µM in “purified protein [6]” (setting [9]). Further, the values for the Km in “purified protein [7]” (setting [9]) and in the data set “purified protein [8]” (setting [9]) were 0.66 ± 2.77 µM and 7.09 ± 0.27 µM, respectively. In addition, the kcat in “purified protein [1]” (setting [9]) is 0.672 ± 0.026 s⁻¹; in the data set “purified protein [2]” (setting [9]), 0.7233 ± 0.00283 s⁻¹; in the data set “purified protein [3]” (setting [9]), 0.796 ± 0.00367 s⁻¹; in “purified protein [4]” (setting [9]) it was 0.213 ± 0.00217 s⁻¹; in “purified protein [5]” (setting [9]) it was 0.3212 ± 0.00267 s⁻¹; in “purified protein [6]” (setting [9]) it was 1.002 ± 0.00267 s⁻¹. Further, the kcat in the data set “purified protein [7]” (setting [9]) came to 0.8588 ± 0.00717 s⁻¹; in the data set “purified protein [8]” (setting [9]), 0.2155 ± 0.002 s⁻¹. In addition, the kcat/Km in “purified protein [1]” (setting [9]) worked out at 88800 ± 3170 M⁻¹ s⁻¹; in “purified protein [2]” (setting [9]), 225000 ± 500 M⁻¹ s⁻¹; in the data set “purified protein [3]” (setting [9]), 459800 ± 2330 M⁻¹ s⁻¹; in the data set “purified protein [4]” (setting [9]) it was 61700 ± 1330 M⁻¹ s⁻¹; in “purified protein [5]” (setting [9]) it was 35200 ± 3000 M⁻¹ s⁻¹; in the data set “purified protein [6]” (setting [9]), 501000 ± 1500 M⁻¹ s⁻¹. Besides, the kcat/Km in the data set “purified protein [7]” (setting [9]) stood at 1.305e+06 ± 1830 M⁻¹ s⁻¹; in “purified protein [8]” (setting [9]), 30300 ± 2170 M⁻¹ s⁻¹.

B2: SiCut2 (Sakaguchia sp.) (protein)
chain: TAIGERQLGCAPLELFHAAGTSEVGQGIIGRAYQSALPRAVSGATVTPVIYSTIAEYFTTVRAGAQTMQRQLTSRAAACPNTKFVLSGYSKGALVVHEVKLPAAIQSKVVAVTLFGDPKNGQFGSSVVPINNKACFFSFCNRGDVFCDRGISLAAHLAYATDGSVTTAARNIAECFNA
notes: as for B1
B2: the Km in the data set “purified protein [1]” (setting [10]) was found to be 2.47 ± 0.09 µM; in the data set “purified protein [2]” (setting [10]), 2.22 ± 1.9 µM; in the data set “purified protein [3]” (setting [10]), 2.82 ± 0.58 µM; in “purified protein [4]” (setting [10]), 4.44 ± 0.5 µM; in the data set “purified protein [5]” (setting [10]), 6.18 ± 0.49 µM; in “purified protein [6]” (setting [10]), 0.89 ± 0.12 µM. Also, the Michaelis-Menten constant (Km) in “purified protein [7]” (setting [10]) stood at 1.44 ± 1.51 µM; in the data set “purified protein [8]” (setting [10]), 4.01 ± 1.3 µM. The catalytic constant (kcat) in the data set “purified protein [1]” (setting [10]) is 1.48 ± 0.0342 s⁻¹; in the data set “purified protein [2]” (setting [10]), 0.983 ± 0.035 s⁻¹; in the data set “purified protein [3]” (setting [10]), 1.13 ± 0.066 s⁻¹; in “purified protein [4]” (setting [10]), 0.832 ± 0.0117 s⁻¹; in “purified protein [5]” (setting [10]), 0.665 ± 0.07 s⁻¹; in “purified protein [6]” (setting [10]), 2.079 ± 0.0025 s⁻¹. Further, the kcat was found to be 1.26 ± 0.0175 s⁻¹ in the data set “purified protein [7]” (setting [10]) and 0.603 ± 0.0417 s⁻¹ in the data set “purified protein [8]” (setting [10]). Besides, the kcat/Km in the data set “purified protein [1]” (setting [10]) is 600700 ± 667 M⁻¹ s⁻¹; in “purified protein [2]” (setting [10]), 443000 ± 4330 M⁻¹ s⁻¹; in the data set “purified protein [3]” (setting [10]), 401000 ± 5000 M⁻¹ s⁻¹; in the data set “purified protein [4]” (setting [10]), 187000 ± 10000 M⁻¹ s⁻¹; in “purified protein [5]” (setting [10]) it was 108000 ± 11300 M⁻¹ s⁻¹; in the data set “purified protein [6]” (setting [10]), 2.344e+06 ± 13800 M⁻¹ s⁻¹. Besides, the figures for the kcat/Km in the data set “purified protein [7]” (setting [10]) and in “purified protein [8]” (setting [10]) were 875000 ± 11700 M⁻¹ s⁻¹ and 150000 ± 3830 M⁻¹ s⁻¹, respectively.
